Data from patent US20250236651A1.

Legend:
[1] = molecular target: native Bovine Collagen Type I (Thermo Fisher) (bovine) (UniProt P02453)
[2] = molecular target: FIB3COL1 (Fibroin-III/Collagen Type-I fusion protein) (Araneus diadematus; human)
[3] = molecular target: SPIDICOL1 (Spidroin-I/Collagen Type-I fusion protein) (Nephila clavipes; human)
[4] = molecular target: FIB3COL1 (Fibroin-III/Collagen Type-I fusion protein) (Araneus diadematus; human); remark: listed apart in the source
[5] = molecular target: SPIDICOL1 (Spidroin-I/Collagen Type-I fusion protein) (Nephila clavipes; human); remark: listed apart in the source

What does the source list for collagenase (enzyme)?
degradation of the electrospun scaffold (mass over time) [1]: 64 h; degradation of the electrospun scaffold (mass over time) [2]: 100 h; degradation of the electrospun scaffold (mass over time) [3]: 96 h

B1: Lysin Hydroxylase 3 (LH3), exogenous human (enzyme)
chain: SDRPRGRDPVNPEKLLVITVATAETEGYLRFLRSAEFFNYTVRTLGLGEEWRGGDVARTVGGGQKVRWLKKEMEKYADREDMIIMFVDSYDVILAGSPTELLKKFVQSGSRLLFSAESFCWPEWGLAEQYPEVGTGKRFLNSGGFIGFATTIHQIVRQWKYKDDDDDQLFYTRLYLDPGLREKLSLNLDHKSRIFQNLNGALDEVVLKFDRNRVRIRNVAYDTLPIVVHGNGPTKLQLNYTYPEHERELGNYVPNGWTPEGGCGFCNQDRRTLPGGQPPPRVFLAVFVEQPTPFLPRFLQRLLLLDYPPDRVTLFLHNNEVFHEPHIADSWPQLQDHFSAVKLVGPEEALSPGEARDMAMDLCRQDPECEFYFSLDADAVLTNLQTLRILIEENRKVIAPMLSRHGKLWSNFWGALSPDEYYARSEDYVELVQRKRVGVWNVPYISQAYVIRGDTLRMELPQRDVFSGSDTDPDMAFCKSFRDKGIFLHLSNQHEFGRLLATSRYDTEHLHPDLWQIFDNPVDWKEQYIHENYSRALEGEGIVEQPCPDVYWFPLLSEQMCDELVAEMEHYGQWSGGRHEDSRLAGGYENVPTVDIHMKQVGYEDQWLQLLRTYVGPMTESLFPGYHTKARAVMNFVVRYRPDEQPSLRPHHDSSTFTLNVALNHKGLDYEGGGCRFLRYDCVISSPRKGWALLHPGRLTHYHEGLPTTWGTRYIMVSFVDP
Which results are given for B1?
hydroxylysine content (amino acid analysis) [4]: 39 fold; hydroxylysine content (amino acid analysis) [5]: 36 fold
